Target: T1, human FIGNL1ΔN (FIGNL1 without the N-terminal 284 aa) (human, UniProt Q6PIW4 285-674)
T1 sequence: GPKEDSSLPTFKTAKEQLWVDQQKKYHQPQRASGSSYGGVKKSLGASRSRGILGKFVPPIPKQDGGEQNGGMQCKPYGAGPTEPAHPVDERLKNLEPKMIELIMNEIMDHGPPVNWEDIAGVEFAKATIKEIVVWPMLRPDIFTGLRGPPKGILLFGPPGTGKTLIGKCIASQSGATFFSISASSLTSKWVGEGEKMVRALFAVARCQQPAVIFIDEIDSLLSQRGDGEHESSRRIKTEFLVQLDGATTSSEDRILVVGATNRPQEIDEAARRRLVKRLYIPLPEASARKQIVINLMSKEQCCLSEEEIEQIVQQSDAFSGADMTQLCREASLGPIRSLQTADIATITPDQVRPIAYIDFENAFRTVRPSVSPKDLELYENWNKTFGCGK
Experiment: native gel or EMSA

B1: human RAD51 (natural protein)
chain: MAMQMQLEANADTSVEEESFGPQPISRLEQCGINANDVKKLEEAGFHTVEAVAYAPKKELINIKGISEAKADKILAEAAKLVPMGFTTATEFHQRRSEIIQITTGSKELDKLLQGGIETGSITEMFGEFRTGKTQICHTLAVTCQLPIDRGGGEGKAMYIDTEGTFRPERLLAVAERYGLSGSDVLDNVAYARAFNTDHQTQLLYQASAMMVESRYALLIVDSATALYRTDYSGRGELSARQMHLARFLRMLLRLADEFGVAVVITNQVVAQVDGAAMFAADPKKPIGGNIIAHASTTRLYLRKGRGETRICKIYDSPCLPEAEAMFAINADGVGDAKD
binding result: binds

Reference: publication doi:10.1101/2023.05.17.541096 (bioRxiv, 2023)
